Laboratory results from paper PMC7907060, “Interaction of Plasmodium falciparum apicortin with α- and β-tubulin is critical for parasite growth and survival” (Scientific Reports, 2021).

What was measured:
[1] = biological target: T1, recombinant Plasmodium falciparum α-tubulin-I (Plasmodium falciparum, UniProt Q6ZLZ9 1-453); experiment: SPR; apicortin (12 µM) immobilised by amine coupling on a gold sensor chip; tubulins 100 nM-1 µM injected, 500 s; PBS; Autolab ESPRIT; conditions: both partners purified
T1 construct: Plasmodium falciparum α-tubulin-I, cloned in pET28a+; also called Pfα-tubulin-I

[2] = biological target: T2, recombinant Plasmodium falciparum β-tubulin (Plasmodium falciparum, UniProt Q7KQL5 1-445); experiment: as above; conditions: both partners purified
T2 construct: Plasmodium falciparum β-tubulin, cloned in pET28a+; also called Pfβ-tubulin

B1: recombinant Plasmodium falciparum apicortin (natural protein, UniProt C0H4E4 1-238, looked up)
chain: MENFDEVIKEYQKYLEGKEKTHKINSCKHPCCEEDNLKSVKNYFKVYHKKYIPSIIQKKKKERNEHAPPLLKDIQDKRCTNVFERLNDKQFYTGVQKTKFMELLKNNKNKSSYCYNNIKVFSTMLKKPCNYVVTPGTLGIQKYGIQTGRPKTIFLFNNEKKYDKGVYFLVKSYIKNIKSLCYEITKILQPSIGPTRKIYDQNFSLVRNVNDLINGGKYLCTSGDPPAPIRNLSLHFLT
notes: Plasmodium falciparum apicortin, cloned in pET28a+; the His tag is surmised from pET28a+ and Ni-NTA; also called PfApicortin
In the case of B1, the Kd [1] is reported as 120 nM and the Kd [2] is reported as 750 nM.
